Test results from patent US20250282874A1 (SUZHOU TRANSCENTA THERAPEUTICS, published 2025).
Read-outs that look alike come from different tables or passages of the source.

Tests used:
human PD-L1-His = biological target: T1, human PD-L1-His (human, UniProt Q9NZQ7 19-238, limits assumed); experiment: ELISA, human PD-L1-His coated, anti-human IgG-HRP, OD450
T1 construct: not shown: His tag

human PD-L1-Fc [1] = biological target: T2, human PD-L1-Fc (human, UniProt Q9NZQ7 19-239); experiment: BLI; PD-L1-Fc loaded on the sensor, scFv in solution
T2 construct: also called hPD-L1-Fc; human PD-L1-Fc (Sino Biological, 70110-D02H); not shown: Fc part

human PD-L1-Fc [2] = biological target: T2, human PD-L1-Fc; experiment: as above; remark: listed apart in the source
human PD-L1-Fc [3] = biological target: T2, human PD-L1-Fc; experiment: as above; remark: listed apart in the source
human PD-L1-Fc [4] = biological target: T2, human PD-L1-Fc; experiment: BLI; against H-CDR2-WT (G55A)

Binder	EC50 (human PD-L1-His) [nM]	Kd (human PD-L1-Fc [3]) [nM]	kon (human PD-L1-Fc [3]) [M⁻¹ s⁻¹]	Fold increase (human PD-L1-Fc [4]) [fold]	further results
Hu4B6_HbLa (antibody, human IgG1, V domains shown) VH: QVQLVQSGAEVKKPGASVKVSCKASGYTFTDYYMNWVRQAPGQGLEWMGDINPNNGGTSYNHKFKGRVTVTVDTSISTAYMELSRLRSDDTAVYYCVKWGDGPFAYWGQGTLVTVSS VL: DIQMTQSPSSLSASVGDRVTITCKASQNVGAAVAWYQQKPGKAPKLLIYSASNRYTGVPSRFSGSGSGTDFTLTISSLQPEDIATYYCQQYSNYPTFGQGTKLEIK	2.38	–	–	–	–
Hu4B6_HaLa (antibody, human IgG1, V domains shown) VH: QVQLVQSGAEVKKPGASVKVSCKASGYTFTDYYMNWVRQAPGQGLEWMGDINPNNGGTSYNHKFKGRVTVTVDTSISTAYMELSRLRSDDTAVYYCARWGDGPFAYWGQGTLVTVSS VL: DIQMTQSPSSLSASVGDRVTITCKASQNVGAAVAWYQQKPGKAPKLLIYSASNRYTGVPSRFSGSGSGTDFTLTISSLQPEDIATYYCQQYSNYPTFGQGTKLEIK	5.16	–	–	–	–
Hu4B6_HaLb (antibody, human IgG1, V domains shown) VH: QVQLVQSGAEVKKPGASVKVSCKASGYTFTDYYMNWVRQAPGQGLEWMGDINPNNGGTSYNHKFKGRVTVTVDTSISTAYMELSRLRSDDTAVYYCARWGDGPFAYWGQGTLVTVSS VL: DIQMTQSPSSLSASVGDRVTITCKASQNVGAAVAWYQQKPGKSPKLLIYSASNRYTGVPDRFSGSGSGTDFTLTISSLQPEDIATYYCQQYSNYPTFGQGTKLEIK	6.26	–	–	–	–
Chimeri 4B6 (antibody, V domains shown, spelling as printed; also called chimeric 4B6; mouse/chimeric antibody 4B6) VH: EVQLQQSGPELVKPGASVKISCKASGYVFTDYYMNWVKQSHGKSLEWIGDINPNNGGTSYNHKFKGKATVTVDKSSRTAYMELLSLTSEDSAVYYCVKWGDGPFAYWGQGTLVTVSA VL: DIVMTQSQKFMSTSVGDRVSITCKASQNVGAAVAWYQQKPGQSPKLLIYSASNRYTGVPDRFTGSGSGTDFTLTISNMQSEDLADYFCQQYSNYPTFGSGTKLGIK	2.05	–	–	–	–
4B6-HgLa scFv (wild-type sequence for affinity maturation) (scFv, written VL-linker-VH; also called L-CDR1-WT; L-CDR2-WT) scFv: DIQMTQSPSSLSASVGDRVTITCKASQNVGAAVAWYQQKPGKAPKLLIYSASNRYTGVPSRFSGSGSGTDFTLTISSLQPEDIATYYCQQYSNYPTFGQGTKLEIKGGGGSGGGGSGGGGSQVQLVQSGAEVKKPGASVKVSCKASGYVFTDYYMNWVRQAPGQSLEWMGDINPNNAGTSYNHKFKGRVTVTVDKSISTAYMELSRLRSDDTAVYYCVKWGDGPFAYWGQGTLVTVSS	–	26.7	46300	–	Kd (human PD-L1-Fc [1]): 28.2 nM; kon (human PD-L1-Fc [1]): 35800 M⁻¹ s⁻¹; Kd (human PD-L1-Fc [2]): 27.6 nM; kon (human PD-L1-Fc [2]): 38100 M⁻¹ s⁻¹
4B6 scFv variant H-CDR2-4 (scFv, also called 4B6-H-CDR2-4) scFv: DIQMTQSPSSLSASVGDRVTITCKASQNVGAAVAWYQQKPGKAPKLLIYSASNRYTGVPSRFSGSGSGTDFTLTISSLQPEDIATYYCQQYSNYPTFGQGTKLEIKGGGGSGGGGSGGGGSQVQLVQSGAEVKKPGASVKVSCKASGYVFTDYYMNWVRQAPGQSLEWMGDINPNNGLTSYNHKFKGRVTVTVDKSISTAYMELSRLRSDDTAVYYCVKWGDGPFAYWGQGTLVTVSS	–	4.43	117000	6.03	–
4B6 scFv variant H-CDR2-2 (scFv, also called 4B6-H-CDR2-2) scFv: DIQMTQSPSSLSASVGDRVTITCKASQNVGAAVAWYQQKPGKAPKLLIYSASNRYTGVPSRFSGSGSGTDFTLTISSLQPEDIATYYCQQYSNYPTFGQGTKLEIKGGGGSGGGGSGGGGSQVQLVQSGAEVKKPGASVKVSCKASGYVFTDYYMNWVRQAPGQSLEWMGDINPNNAQTQYNHKFKGRVTVTVDKSISTAYMELSRLRSDDTAVYYCVKWGDGPFAYWGQGTLVTVSS	–	2.42	101000	11	–
4B6 scFv variant H-CDR2-3 (scFv, also called 4B6-H-CDR2-3) scFv: DIQMTQSPSSLSASVGDRVTITCKASQNVGAAVAWYQQKPGKAPKLLIYSASNRYTGVPSRFSGSGSGTDFTLTISSLQPEDIATYYCQQYSNYPTFGQGTKLEIKGGGGSGGGGSGGGGSQVQLVQSGAEVKKPGASVKVSCKASGYVFTDYYMNWVRQAPGQSLEWMGDINPNNAETLYNHKFKGRVTVTVDKSISTAYMELSRLRSDDTAVYYCVKWGDGPFAYWGQGTLVTVSS	–	2.43	116000	11	–
4B6 scFv variant H-CDR2-5 (scFv, also called 4B6-H-CDR2-5) scFv: DIQMTQSPSSLSASVGDRVTITCKASQNVGAAVAWYQQKPGKAPKLLIYSASNRYTGVPSRFSGSGSGTDFTLTISSLQPEDIATYYCQQYSNYPTFGQGTKLEIKGGGGSGGGGSGGGGSQVQLVQSGAEVKKPGASVKVSCKASGYVFTDYYMNWVRQAPGQSLEWMGDINPNNAQTVYNHKFKGRVTVTVDKSISTAYMELSRLRSDDTAVYYCVKWGDGPFAYWGQGTLVTVSS	–	2.4	102000	11.1	–
4B6 scFv variant H-CDR2-1 (scFv, also called 4B6-H-CDR2-1) scFv: DIQMTQSPSSLSASVGDRVTITCKASQNVGAAVAWYQQKPGKAPKLLIYSASNRYTGVPSRFSGSGSGTDFTLTISSLQPEDIATYYCQQYSNYPTFGQGTKLEIKGGGGSGGGGSGGGGSQVQLVQSGAEVKKPGASVKVSCKASGYVFTDYYMNWVRQAPGQSLEWMGDINPNNADTMYNHKFKGRVTVTVDKSISTAYMELSRLRSDDTAVYYCVKWGDGPFAYWGQGTLVTVSS	–	3.52	141000	7.6	–

The next lines start with results.

EC50 (human PD-L1-His) [nM]	Kd (human PD-L1-Fc [3]) [nM]	kon (human PD-L1-Fc [3]) [M⁻¹ s⁻¹]	Fold increase (human PD-L1-Fc [4]) [fold]	Binder	further results
5.74	–	–	–	Hu4B6_HcLa (antibody, human IgG1, V domains shown) VH: QVQLVQSGAEVKKPGASVKVSCKASGYVFTDYYMNWVRQAPGQGLEWMGDINPNNGGTSYNHKFKGRVTVTVDKSISTAYMELSRLRSDDTAVYYCARWGDGPFAYWGQGTLVTVSS VL: DIQMTQSPSSLSASVGDRVTITCKASQNVGAAVAWYQQKPGKAPKLLIYSASNRYTGVPSRFSGSGSGTDFTLTISSLQPEDIATYYCQQYSNYPTFGQGTKLEIK	–
1.47	–	–	–	Hu4B6_HdLb (antibody, human IgG1, V domains shown) VH: QVQLVQSGAEVKKPGASVKVSCKASGYVFTDYYMNWVRQAPGQSLEWMGDINPNNGGTSYNHKFKGRVTVTVDKSISTAYMELSRLRSDDTAVYYCVKWGDGPFAYWGQGTLVTVSS VL: DIQMTQSPSSLSASVGDRVTITCKASQNVGAAVAWYQQKPGKSPKLLIYSASNRYTGVPDRFSGSGSGTDFTLTISSLQPEDIATYYCQQYSNYPTFGQGTKLEIK	–
2.81	–	–	–	Hu4B6_HbLb (antibody, human IgG1, V domains shown) VH: QVQLVQSGAEVKKPGASVKVSCKASGYTFTDYYMNWVRQAPGQGLEWMGDINPNNGGTSYNHKFKGRVTVTVDTSISTAYMELSRLRSDDTAVYYCVKWGDGPFAYWGQGTLVTVSS VL: DIQMTQSPSSLSASVGDRVTITCKASQNVGAAVAWYQQKPGKSPKLLIYSASNRYTGVPDRFSGSGSGTDFTLTISSLQPEDIATYYCQQYSNYPTFGQGTKLEIK	–
3.44	–	–	–	Hu4B6_HcLb (antibody, human IgG1, V domains shown) VH: QVQLVQSGAEVKKPGASVKVSCKASGYVFTDYYMNWVRQAPGQGLEWMGDINPNNGGTSYNHKFKGRVTVTVDKSISTAYMELSRLRSDDTAVYYCARWGDGPFAYWGQGTLVTVSS VL: DIQMTQSPSSLSASVGDRVTITCKASQNVGAAVAWYQQKPGKSPKLLIYSASNRYTGVPDRFSGSGSGTDFTLTISSLQPEDIATYYCQQYSNYPTFGQGTKLEIK	–
